# Results as given in US20120178668A1.
# T1: NPR-C (rat) (UniProt P41740)
# T1 sequence: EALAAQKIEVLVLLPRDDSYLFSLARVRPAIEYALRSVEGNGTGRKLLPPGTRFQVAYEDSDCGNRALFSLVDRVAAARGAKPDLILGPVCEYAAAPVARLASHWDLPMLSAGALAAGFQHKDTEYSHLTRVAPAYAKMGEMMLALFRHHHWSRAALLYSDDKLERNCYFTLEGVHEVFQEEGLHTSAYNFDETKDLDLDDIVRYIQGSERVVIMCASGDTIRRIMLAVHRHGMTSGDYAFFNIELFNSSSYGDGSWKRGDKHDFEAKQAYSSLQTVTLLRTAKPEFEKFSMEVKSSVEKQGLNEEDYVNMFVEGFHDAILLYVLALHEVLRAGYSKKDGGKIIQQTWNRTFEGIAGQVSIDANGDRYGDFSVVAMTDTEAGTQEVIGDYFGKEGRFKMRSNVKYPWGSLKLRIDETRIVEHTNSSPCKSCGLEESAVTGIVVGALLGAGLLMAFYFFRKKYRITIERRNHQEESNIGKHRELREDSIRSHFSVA
# T2: NPR-C (rat), P41740
# T2 chain: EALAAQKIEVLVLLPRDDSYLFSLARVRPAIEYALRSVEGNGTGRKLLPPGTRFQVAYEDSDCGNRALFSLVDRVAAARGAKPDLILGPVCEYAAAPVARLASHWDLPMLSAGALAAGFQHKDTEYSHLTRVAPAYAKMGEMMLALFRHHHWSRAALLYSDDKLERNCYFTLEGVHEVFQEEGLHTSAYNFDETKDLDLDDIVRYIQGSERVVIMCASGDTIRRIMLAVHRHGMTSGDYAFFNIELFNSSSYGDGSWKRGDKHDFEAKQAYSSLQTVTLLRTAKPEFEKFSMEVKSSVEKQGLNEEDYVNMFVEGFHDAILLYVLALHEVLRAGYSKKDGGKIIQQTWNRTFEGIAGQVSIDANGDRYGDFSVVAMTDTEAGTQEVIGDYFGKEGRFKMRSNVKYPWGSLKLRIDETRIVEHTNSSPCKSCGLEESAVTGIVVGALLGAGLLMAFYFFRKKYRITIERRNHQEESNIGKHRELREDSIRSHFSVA
# T3: NPR-A of HeLa cells, P16066
# T3 chain: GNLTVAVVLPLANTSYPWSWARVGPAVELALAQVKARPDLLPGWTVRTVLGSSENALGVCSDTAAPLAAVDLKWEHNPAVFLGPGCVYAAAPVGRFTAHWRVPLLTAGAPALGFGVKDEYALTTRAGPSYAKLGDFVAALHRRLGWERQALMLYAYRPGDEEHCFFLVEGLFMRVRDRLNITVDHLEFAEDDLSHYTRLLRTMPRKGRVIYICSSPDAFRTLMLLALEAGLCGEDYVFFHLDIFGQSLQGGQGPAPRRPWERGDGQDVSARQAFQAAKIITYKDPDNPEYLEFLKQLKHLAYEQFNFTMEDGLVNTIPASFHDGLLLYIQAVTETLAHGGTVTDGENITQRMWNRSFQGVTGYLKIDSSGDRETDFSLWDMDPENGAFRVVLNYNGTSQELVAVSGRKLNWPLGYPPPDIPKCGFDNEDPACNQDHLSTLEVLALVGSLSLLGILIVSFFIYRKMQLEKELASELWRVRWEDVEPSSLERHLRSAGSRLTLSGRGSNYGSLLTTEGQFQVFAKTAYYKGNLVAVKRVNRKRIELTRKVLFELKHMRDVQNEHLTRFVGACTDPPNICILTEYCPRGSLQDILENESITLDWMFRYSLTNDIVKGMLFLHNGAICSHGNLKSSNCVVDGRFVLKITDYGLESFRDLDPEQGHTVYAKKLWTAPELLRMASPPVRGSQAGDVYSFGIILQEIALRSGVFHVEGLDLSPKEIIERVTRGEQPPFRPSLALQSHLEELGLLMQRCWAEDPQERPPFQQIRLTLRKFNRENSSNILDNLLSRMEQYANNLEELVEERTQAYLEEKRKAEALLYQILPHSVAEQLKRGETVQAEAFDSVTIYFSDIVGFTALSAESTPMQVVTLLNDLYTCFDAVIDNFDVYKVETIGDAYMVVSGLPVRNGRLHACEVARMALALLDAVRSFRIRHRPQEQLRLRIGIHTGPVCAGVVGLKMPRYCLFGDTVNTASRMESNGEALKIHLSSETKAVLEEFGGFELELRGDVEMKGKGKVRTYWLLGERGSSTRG
# T4: rat GC-A (rat), P18910
# T4 chain: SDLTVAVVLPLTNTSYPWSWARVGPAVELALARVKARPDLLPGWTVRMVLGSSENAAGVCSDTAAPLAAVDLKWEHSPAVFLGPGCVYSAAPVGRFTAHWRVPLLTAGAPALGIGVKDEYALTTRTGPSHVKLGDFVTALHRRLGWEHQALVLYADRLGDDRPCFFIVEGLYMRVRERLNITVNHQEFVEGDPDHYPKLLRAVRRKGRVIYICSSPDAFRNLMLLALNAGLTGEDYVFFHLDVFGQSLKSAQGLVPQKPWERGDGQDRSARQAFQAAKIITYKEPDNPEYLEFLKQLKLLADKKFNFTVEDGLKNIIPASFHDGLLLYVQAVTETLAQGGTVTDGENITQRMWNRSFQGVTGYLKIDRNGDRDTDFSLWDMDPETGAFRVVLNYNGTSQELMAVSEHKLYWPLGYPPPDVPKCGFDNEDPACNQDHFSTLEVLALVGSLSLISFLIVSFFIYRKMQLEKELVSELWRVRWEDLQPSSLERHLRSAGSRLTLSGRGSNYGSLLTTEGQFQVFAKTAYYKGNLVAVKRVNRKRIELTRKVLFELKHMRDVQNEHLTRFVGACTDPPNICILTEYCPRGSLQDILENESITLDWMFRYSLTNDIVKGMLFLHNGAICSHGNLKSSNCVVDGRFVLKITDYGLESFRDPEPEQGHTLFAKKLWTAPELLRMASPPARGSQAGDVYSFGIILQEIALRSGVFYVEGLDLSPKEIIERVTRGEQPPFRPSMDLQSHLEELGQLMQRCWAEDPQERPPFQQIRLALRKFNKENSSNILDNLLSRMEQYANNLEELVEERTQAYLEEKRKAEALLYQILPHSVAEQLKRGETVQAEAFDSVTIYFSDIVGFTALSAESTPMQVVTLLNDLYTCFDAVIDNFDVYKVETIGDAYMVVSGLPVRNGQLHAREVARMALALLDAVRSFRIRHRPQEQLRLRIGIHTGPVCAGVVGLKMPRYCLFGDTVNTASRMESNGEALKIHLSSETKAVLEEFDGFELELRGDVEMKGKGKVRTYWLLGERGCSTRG
# T5: Natriuretic Peptide Receptor-A (NPR-A) of MDCK cells (canine (endogenous in MDCK cells)), A0A8I3
# T5 chain: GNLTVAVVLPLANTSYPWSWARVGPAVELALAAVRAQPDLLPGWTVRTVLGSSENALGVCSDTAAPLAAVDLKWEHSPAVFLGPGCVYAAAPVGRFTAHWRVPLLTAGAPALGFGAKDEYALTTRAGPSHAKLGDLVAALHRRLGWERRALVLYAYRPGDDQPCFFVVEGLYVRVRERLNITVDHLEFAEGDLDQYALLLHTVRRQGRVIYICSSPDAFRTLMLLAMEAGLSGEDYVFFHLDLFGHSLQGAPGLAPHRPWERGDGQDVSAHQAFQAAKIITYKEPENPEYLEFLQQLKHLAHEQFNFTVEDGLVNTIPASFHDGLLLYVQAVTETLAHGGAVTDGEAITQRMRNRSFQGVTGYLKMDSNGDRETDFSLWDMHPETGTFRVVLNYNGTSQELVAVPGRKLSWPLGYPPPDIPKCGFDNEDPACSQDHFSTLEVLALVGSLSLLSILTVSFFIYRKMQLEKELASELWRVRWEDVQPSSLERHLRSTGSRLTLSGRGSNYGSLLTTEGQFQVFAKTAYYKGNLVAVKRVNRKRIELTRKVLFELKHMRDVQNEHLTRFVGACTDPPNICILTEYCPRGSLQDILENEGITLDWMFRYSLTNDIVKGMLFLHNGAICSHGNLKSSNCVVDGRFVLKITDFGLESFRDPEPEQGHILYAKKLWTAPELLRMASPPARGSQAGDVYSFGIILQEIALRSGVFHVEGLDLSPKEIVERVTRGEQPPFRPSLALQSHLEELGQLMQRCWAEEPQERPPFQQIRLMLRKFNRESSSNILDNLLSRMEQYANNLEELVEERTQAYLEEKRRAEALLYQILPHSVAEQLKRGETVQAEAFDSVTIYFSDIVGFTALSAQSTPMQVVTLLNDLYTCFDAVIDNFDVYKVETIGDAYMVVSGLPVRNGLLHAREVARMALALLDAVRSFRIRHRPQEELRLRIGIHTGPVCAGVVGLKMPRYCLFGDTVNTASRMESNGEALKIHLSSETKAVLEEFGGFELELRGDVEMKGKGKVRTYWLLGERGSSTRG
# Assays:
# Test in all cases: cell-based or functional assay
# [1] = target: Natriuretic Peptide Receptor-A (NPR-A) of MDCK cells (canine (endogenous in MDCK cells))
# rat GC-A (rat) = rat GC-A (rat) (UniProt P18910)
# NPR-A of HeLa cells = NPR-A of HeLa cells (UniProt P16066)
# NPR-C (rat) = target: T1, NPR-C (rat)
# NPR-C (rat), P41740 = target: T2, NPR-C (rat), P41740
# [2] = target: T3, NPR-A of HeLa cells, P16066
# rat GC-A (rat), P18910 = target: T4, rat GC-A (rat), P18910
# [3] = target: T5, Natriuretic Peptide Receptor-A (NPR-A) …
Molecule,-Log10 EC50 (pEC50) of cGMP accumulation in MDCK cells [1],EC50 of cGMP accumulation in MDCK cells [1] [µM],"mean relaxation of denuded aortic rings, % of KCl response (% of KCl response) (rat GC-A (rat))",further results
P28-TNPc (peptide),6,1.19,52.6,
rANP (from UniProt P01161 123-150) (peptide),8.76,0.00847,,
Lebetin 2 isoform α (peptide),7.64,0.0268,,
R18-TNPc (peptide),6.78,0.7,0.5,
R32-TNPc (peptide),7.68,0.0991,66.4,
"S6, A7-TNPc (peptide)",6.9,0.169,43.1,
K7-TNPc (peptide),7.44,0.0527,46.1,relaxation of denuded aortic rings (rat GC-A (rat)): 50%
A7-TNPc (peptide),6.87,0.161,32.9,
PNP (peptide),6.66,0.347,,
CHA10-TNPc (peptide),7.84,0.0144,64.2,
hBNP (peptide),9.16,0.000906,,-Log10EC50 (pEC50) of cGMP accumulation in HeLa cells (NPR-A of HeLa cells): 6.92; EC50 of cGMP accumulation in HeLa cells (NPR-A of HeLa cells): 0.147 µM
Nle29-TNPc (peptide),6.5,0.399,61,
hANP (peptide),8.79,0.0164,66.5,relaxation of KCl pre-contracted endothelium-intact rat aortic rings (NPR-C (rat)): 100%; relaxation of KCl pre-contracted endothelium-denuded rat aortic rings (rat GC-A (rat)): 100%
N7D-TNPc (peptide),7.58,0.0262,,
DNP (peptide),8.08,1.85,,relaxation of KCl pre-contracted endothelium-intact rat aortic rings (NPR-C (rat)): 100%; relaxation of KCl pre-contracted endothelium-denuded rat aortic rings (rat GC-A (rat)): 100%; -Log10EC50 (pEC50) of cGMP accumulation in HeLa cells (NPR-A of HeLa cells): 9.42; EC50 of cGMP accumulation in HeLa cells (NPR-A of HeLa cells): 0.000392 µM
"S6, K7-TNPc (peptide)",7.57,0.0524,43.8,
SDSKIGNGCFGFPLDRIGSVSGLGCNRIMQNPPKKFSGE (modifications not checked) [TNPc],,,,"relaxation of KCl pre-contracted endothelium-intact rat aortic rings (NPR-C (rat), P41740): 100%; EC50 of cGMP accumulation in HeLa cells [2]: 124000 µM; mean relaxation of denuded aortic rings, % of KCl response (% of KCl response) (rat GC-A (rat), P18910): 55; relaxation of KCl pre-contracted endothelium-denuded rat aortic rings (rat GC-A (rat), P18910): 100%; -Log10 EC50 (pEC50) of cGMP accumulation in MDCK cells [3]: 6.93; EC50 of cGMP accumulation in MDCK cells [3]: 0.184 µM"
SDSKIGDGCFGLPLDHIGSVSGLGCNRPVQNRPKK (modifications not checked) [TNPa],,,,"relaxation of KCl pre-contracted endothelium-intact rat aortic rings (NPR-C (rat), P41740): 20%"
SDPKIGDGCFGLPLDHIGSVSGLGCNRPVQNRPKK (modifications not checked) [TNPb],,,,"relaxation of KCl pre-contracted endothelium-intact rat aortic rings (NPR-C (rat), P41740): 20%"
